Laboratory results from patent US9845340B2, “Peptides that specifically bind HGF receptor (cMet) and uses thereof” (Dyax Corp., priority 2003, dated 2017).

Experiments:
[1] = molecular target: T1, 3T3 cells that over-express human cMet (Homo sapiens, UniProt P08581); assay: Whole cell ELISA of peptide-displaying phage; assay type: cell-based; settings: phage isolate; 3T3 cells expressing human cMet vs. non-expressing 3T3 cells
T1 construct: expressed in transfected cells; host or cells: 3T3 cells
T1 sequence (P08581 25-1390): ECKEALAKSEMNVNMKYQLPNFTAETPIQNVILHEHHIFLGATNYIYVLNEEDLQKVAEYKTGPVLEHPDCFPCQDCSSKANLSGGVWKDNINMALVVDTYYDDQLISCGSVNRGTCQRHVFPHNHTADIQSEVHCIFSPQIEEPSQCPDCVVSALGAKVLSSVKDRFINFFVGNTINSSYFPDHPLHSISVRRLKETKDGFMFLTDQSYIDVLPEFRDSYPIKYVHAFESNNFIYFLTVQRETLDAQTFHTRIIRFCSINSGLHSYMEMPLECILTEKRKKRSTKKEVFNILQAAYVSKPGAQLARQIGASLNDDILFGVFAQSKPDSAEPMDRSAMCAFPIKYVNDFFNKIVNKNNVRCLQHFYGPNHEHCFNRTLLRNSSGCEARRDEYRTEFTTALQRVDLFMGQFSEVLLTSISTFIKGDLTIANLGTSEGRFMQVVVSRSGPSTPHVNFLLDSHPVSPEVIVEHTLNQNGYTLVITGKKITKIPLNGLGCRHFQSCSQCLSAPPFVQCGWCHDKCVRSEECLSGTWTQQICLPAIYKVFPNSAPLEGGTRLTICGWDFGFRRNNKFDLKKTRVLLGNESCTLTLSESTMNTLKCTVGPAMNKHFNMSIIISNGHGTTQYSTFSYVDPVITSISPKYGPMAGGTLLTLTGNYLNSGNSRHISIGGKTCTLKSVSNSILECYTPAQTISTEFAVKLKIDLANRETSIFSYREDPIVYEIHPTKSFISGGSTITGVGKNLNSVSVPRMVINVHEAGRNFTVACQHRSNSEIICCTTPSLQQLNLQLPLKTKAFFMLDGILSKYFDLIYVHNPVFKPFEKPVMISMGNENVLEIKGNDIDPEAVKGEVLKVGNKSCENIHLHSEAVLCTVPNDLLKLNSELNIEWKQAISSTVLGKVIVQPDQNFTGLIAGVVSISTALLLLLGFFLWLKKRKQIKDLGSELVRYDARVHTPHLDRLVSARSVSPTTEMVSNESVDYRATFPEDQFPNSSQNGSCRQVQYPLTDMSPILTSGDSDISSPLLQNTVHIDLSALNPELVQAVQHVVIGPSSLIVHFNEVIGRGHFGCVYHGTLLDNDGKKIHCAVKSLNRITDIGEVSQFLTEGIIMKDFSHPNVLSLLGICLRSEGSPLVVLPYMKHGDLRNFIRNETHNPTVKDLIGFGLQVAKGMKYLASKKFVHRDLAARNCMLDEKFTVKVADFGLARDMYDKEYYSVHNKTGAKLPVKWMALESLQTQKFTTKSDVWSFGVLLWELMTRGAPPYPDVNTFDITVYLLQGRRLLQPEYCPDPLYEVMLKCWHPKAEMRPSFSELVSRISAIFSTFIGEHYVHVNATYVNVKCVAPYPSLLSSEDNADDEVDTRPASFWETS
Method in brief: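 Phage displaying peptides, pre-blocked 1 h at 37 °C, incubated 1 h at RT on glutaraldehyde-fixed (0.1%, 12 min, 37 °C) cMet-overexpressing 3T3 cells (10^5 per well). Binding read out by HRP anti-M13 antibody after PBST washing.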

cMet-Fc fusion protein = cMet-Fc fusion protein (Homo sapiens, UniProt P08581); assay: Protein phage ELISA: peptide-displaying phage binding to soluble cMet-Fc versus TRAIL-Fc; settings: phage isolate; cMet-Fc vs. TRAIL-Fc
Chain of cMet-Fc fusion protein (P08581 25-307 limits assumed): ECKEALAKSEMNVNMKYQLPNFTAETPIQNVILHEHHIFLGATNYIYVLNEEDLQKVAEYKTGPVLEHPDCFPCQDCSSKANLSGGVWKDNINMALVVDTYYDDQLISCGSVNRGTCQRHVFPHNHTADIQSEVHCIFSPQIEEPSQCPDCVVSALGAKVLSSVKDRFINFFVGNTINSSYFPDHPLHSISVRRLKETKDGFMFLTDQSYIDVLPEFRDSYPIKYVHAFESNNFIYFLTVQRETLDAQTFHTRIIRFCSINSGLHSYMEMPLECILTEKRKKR
Chain of cMet-Fc fusion protein (P08581 with tags, fused parts or gaps limits assumed): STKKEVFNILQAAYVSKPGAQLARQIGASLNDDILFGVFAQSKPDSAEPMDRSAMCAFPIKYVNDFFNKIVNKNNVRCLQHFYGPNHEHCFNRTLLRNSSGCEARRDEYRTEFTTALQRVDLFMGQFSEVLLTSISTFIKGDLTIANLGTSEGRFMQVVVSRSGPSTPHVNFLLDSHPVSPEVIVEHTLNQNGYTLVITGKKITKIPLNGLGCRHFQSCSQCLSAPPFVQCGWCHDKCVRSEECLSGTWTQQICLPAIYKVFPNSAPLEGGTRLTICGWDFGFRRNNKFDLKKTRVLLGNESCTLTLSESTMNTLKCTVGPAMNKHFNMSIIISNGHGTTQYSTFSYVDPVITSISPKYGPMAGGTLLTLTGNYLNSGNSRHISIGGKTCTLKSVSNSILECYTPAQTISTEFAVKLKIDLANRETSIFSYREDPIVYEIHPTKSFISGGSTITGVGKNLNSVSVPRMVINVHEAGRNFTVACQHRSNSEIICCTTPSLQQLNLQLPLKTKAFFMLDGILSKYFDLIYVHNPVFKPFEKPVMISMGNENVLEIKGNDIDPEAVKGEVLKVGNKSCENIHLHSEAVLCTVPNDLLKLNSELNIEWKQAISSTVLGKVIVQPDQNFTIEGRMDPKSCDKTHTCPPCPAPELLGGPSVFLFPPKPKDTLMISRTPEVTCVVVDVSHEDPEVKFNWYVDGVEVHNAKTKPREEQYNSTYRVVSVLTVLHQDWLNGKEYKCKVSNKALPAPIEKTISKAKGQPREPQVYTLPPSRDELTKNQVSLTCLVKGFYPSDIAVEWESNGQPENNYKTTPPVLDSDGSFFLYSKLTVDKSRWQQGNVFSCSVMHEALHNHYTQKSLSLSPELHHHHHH
Method in brief: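 Phage displaying selected peptides were incubated 2 h at room temperature on wells coated with 0.5 μg/mL cMet-Fc, with TRAIL-Fc coating as the unrelated-Fc specificity control.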

Sequence | WC ELISA [1] [fold over background] | Protein ELISA (cMet-Fc fusion protein) [fold over background]
AGGFACGPPWDICWMFGT (Synthetically generated cMet-binding peptide sequence) [SEQ ID NO: 011] | 1.30 | 5.6
AGHTICQHKALGCPANGT (Synthetically generated cMet-binding peptide sequence) [SEQ ID NO: 041] | 1.27 | 3.1
AGIWFCNNEEKSCWAYGT (Synthetically generated cMet-binding peptide sequence) [SEQ ID NO: 040] | 1.37 | 3.0
AGKQWCVVWEETCDQLGT (Synthetically generated cMet-binding peptide sequence) [SEQ ID NO: 039] | 1.33 | 3.7
AGKTVCQKWESVCSGMGT (Synthetically generated cMet-binding peptide sequence) [SEQ ID NO: 038] | 1.30 | 3.1
AGKYMCEGFEWFCEMWGT (Synthetically generated cMet-binding peptide sequence) [SEQ ID NO: 037] | 1.43 | 4.1
AGLLGCWDMPMECTGEGT (Synthetically generated cMet-binding peptide sequence) [SEQ ID NO: 036] | 1.27 | 3.6
AGLYLCDLSIMYCFFQGT (Synthetically generated cMet-binding peptide sequence) [SEQ ID NO: 015] | 1.33 | 4.3
AGMDFCEGFWFLCIGNAT (Synthetically generated cMet-binding peptide sequence) [SEQ ID NO: 035] | 1.23 | 3.5
AGNLPCHWNMSVCDHQGT (Synthetically generated cMet-binding peptide sequence) [SEQ ID NO: 034] | 1.30 | 3.3
AGNWICNLSEMRCYPKGT (Synthetically generated cMet-binding peptide sequence) [SEQ ID NO: 013] | 1.40 | 3.9
AGPLFCFEWPSLCHWGGT (Synthetically generated cMet-binding peptide sequence) [SEQ ID NO: 033] | 1.43 | 3.8
AGPYSCHSESHDCKLMGT (Synthetically generated cMet-binding peptide sequence) [SEQ ID NO: 032] | 1.27 | 3.2
AGQAVCEWGPFWCQMQGT (Synthetically generated cMet-binding peptide sequence) [SEQ ID NO: 031] | 1.30 | 3.2
AGQMWCAEKNSKCYQWGT (Synthetically generated cMet-binding peptide sequence) [SEQ ID NO: 030] | 1.27 | 3.2
AGQYLCTQAALGCPEWGT (Synthetically generated cMet-binding peptide sequence) [SEQ ID NO: 029] | 1.23 | 4.3
AGTIRCNLAMMVCMFEGT (Synthetically generated cMet-binding peptide sequence) [SEQ ID NO: 028] | 1.43 | 3.6
AGTLSCSEEYKSCQLQGT (Synthetically generated cMet-binding peptide sequence) [SEQ ID NO: 027] | 1.30 | 3.6

More lines, now with the values ahead:

WC ELISA [1] [fold over background] | Protein ELISA (cMet-Fc fusion protein) [fold over background] | Sequence
1.27 | 10.3 | AGETFCVGNPSFECWSWGT (Synthetically generated cMet-binding peptide sequence) [SEQ ID NO: 094]
1.23 | 16.3 | AGETKCSGPPYFYCWMEGT (Synthetically generated cMet-binding peptide sequence) [SEQ ID NO: 093]
1.27 | 5.3 | AGETTCLGWPTFVCVDYGT (Synthetically generated cMet-binding peptide sequence) [SEQ ID NO: 063]
1.10 | 7.8 | AGETVCYWLNGWFCVDDGT (Synthetically generated cMet-binding peptide sequence) [SEQ ID NO: 073]
1.23 | 12.3 | AGFVNCKGPPTFECILTGT (Synthetically generated cMet-binding peptide sequence) [SEQ ID NO: 057]
1.33 | 3.9 | AGFWDCGWMMQDCHMHGT (Synthetically generated cMet-binding peptide sequence) [SEQ ID NO: 045]
1.23 | 4.1 | AGGHWCLELKHLCPPYGT (Synthetically generated cMet-binding peptide sequence) [SEQ ID NO: 044]
1.37 | 4.2 | AGGNWCSFYEELCEWLGT (Synthetically generated cMet-binding peptide sequence) [SEQ ID NO: 043]
1.23 | 3.1 | AGHFECPKHQYMCDMPGT (Synthetically generated cMet-binding peptide sequence) [SEQ ID NO: 042]
1.40 | 6.0 | AGHGTCRGWPTFECIYFGT (Synthetically generated cMet-binding peptide sequence) [SEQ ID NO: 064]
1.40 | 10.2 | AGHYWCAGPPTFICMGPGT (Synthetically generated cMet-binding peptide sequence) [SEQ ID NO: 062]
1.30 | 13.5 | AGLPKCSGPPWFSCYYGGT (Synthetically generated cMet-binding peptide sequence) [SEQ ID NO: 066]
1.23 | 12.3 | AGMTLCAGPPTFECYEVGT (Synthetically generated cMet-binding peptide sequence) [SEQ ID NO: 092]
1.33 | 13.4 | AGNYFCAGSPSFSCYFMGT (Synthetically generated cMet-binding peptide sequence) [SEQ ID NO: 054]
1.27 | 8.9 | AGNYWCSGPPSFICHAVGT (Synthetically generated cMet-binding peptide sequence) [SEQ ID NO: 091]
1.23 | 19.5 | AGPWKCTGPPTFSCIQFGT (Synthetically generated cMet-binding peptide sequence) [SEQ ID NO: 090]
1.43 | 14.8 | AGQFKCAGPPSFACWMTGT (Synthetically generated cMet-binding peptide sequence) [SEQ ID NO: 050]
1.23 | 12.4 | AGQFYCSGPPTFQCIMIGT (Synthetically generated cMet-binding peptide sequence) [SEQ ID NO: 089]
1.10 | 5.6 | AGSIACTGWPYFSCIDLGT (Synthetically generated cMet-binding peptide sequence) [SEQ ID NO: 088]
1.30 | 4.8 | AGSSPCKGWPTFECYFYGT (Synthetically generated cMet-binding peptide sequence) [SEQ ID NO: 087]
1.30 | 5.2 | AGSTDCRGHPTFECWGWGT (Synthetically generated cMet-binding peptide sequence) [SEQ ID NO: 086]
1.37 | 3.9 | AGSWECTGPPSFHCQWYGT (Synthetically generated cMet-binding peptide sequence) [SEQ ID NO: 070]
1.27 | 17.1 | AGSYWCSGPPTFMCRYEGT (Synthetically generated cMet-binding peptide sequence) [SEQ ID NO: 085]
